In patent US20100233154A1, “TARGETED BINDING AGENTS DIRECTED TO HEPARANASE AND USES THEREOF 463” (MedImmune Limited, priority 2008, published 2010):

Molecular target: cynomolgus heparanase (cynomolgus)
Test: cross species capture ELISA, heparanase captured by rabbit anti-heparanase antibody, exhaustive supernatant 1:5, anti-human IgG Fc detection

Sequence of cynomolgus heparanase (cynomolgus) (chain, as listed by the source): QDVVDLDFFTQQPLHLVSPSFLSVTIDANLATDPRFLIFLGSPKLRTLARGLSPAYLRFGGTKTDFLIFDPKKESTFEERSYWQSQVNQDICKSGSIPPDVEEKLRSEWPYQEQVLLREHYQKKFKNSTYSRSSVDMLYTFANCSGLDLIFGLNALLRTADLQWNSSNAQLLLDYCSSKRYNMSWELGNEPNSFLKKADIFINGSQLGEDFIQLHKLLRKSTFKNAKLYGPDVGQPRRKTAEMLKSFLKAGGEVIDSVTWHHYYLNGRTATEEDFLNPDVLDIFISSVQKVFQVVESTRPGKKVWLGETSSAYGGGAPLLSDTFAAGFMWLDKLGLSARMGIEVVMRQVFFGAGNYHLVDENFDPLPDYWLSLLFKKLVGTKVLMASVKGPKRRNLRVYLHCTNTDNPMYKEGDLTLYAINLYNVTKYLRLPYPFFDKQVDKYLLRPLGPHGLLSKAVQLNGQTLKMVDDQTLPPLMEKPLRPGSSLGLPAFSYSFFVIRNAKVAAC

B1: monoclonal antibody 15A1.2 (antibody, V domains shown)
VH: QVQLVQSGAEVKKPGASVKVSCKVSGYTLTELSMHWVRQAPGKGLEWMGGFDPEDGETIFAQKFQGRVTMTEDTSTDTAYMELSSLRSEDTAVYYCATGLRFLEWFLWGWDVWGQGTTVTVSS
VL: DIQMTQSPSSVSASVGDRVTITCRASQGISNWLAWYQQTPGKAPQLLIYGASSLQSGVPSRFSGSGSGTDFTLTISSLQPEDFATYYCQQADSFPPTFGQGTKVEIK
- OD, binding to heparanase (Cyno): 0.11 OD units
